The target in the assay is T1, recombinant α catalytic subunit of rabbit protein phosphatase 1 (Ppp1ca) (rabbit, UniProt P62139 1-330).
T1 construct: α catalytic subunit of protein phosphatase 1 (Ppp1ca), rabbit, recombinant; also called PP1A; Protein Phosphatase 1 Catalytic Subunit, α-isoform; source: bought: MilliporeSigma, P7937 (recombinant)
The experiment in a line: pull-down; GST-(N) NCC or GST alone on glutathione-agarose beads with 2–10 μg recombinant phosphatase; 12- to 18-hour incubation in PBS with 0.5 mM TCEP at 4°C; bound protein detected by Western blotting. The note with it: both partners purified. Background: In western blotting, separated proteins are transferred to a membrane and probed.

The text below walks through data of PMC10617769, “Dietary potassium stimulates Ppp1Ca-Ppp1r1a dephosphorylation of kidney NaCl cotransporter and reduces blood pressure” (The Journal of Clinical Investigation, 2023).

T1 sequence (P62139 whole entry, canonical isoform): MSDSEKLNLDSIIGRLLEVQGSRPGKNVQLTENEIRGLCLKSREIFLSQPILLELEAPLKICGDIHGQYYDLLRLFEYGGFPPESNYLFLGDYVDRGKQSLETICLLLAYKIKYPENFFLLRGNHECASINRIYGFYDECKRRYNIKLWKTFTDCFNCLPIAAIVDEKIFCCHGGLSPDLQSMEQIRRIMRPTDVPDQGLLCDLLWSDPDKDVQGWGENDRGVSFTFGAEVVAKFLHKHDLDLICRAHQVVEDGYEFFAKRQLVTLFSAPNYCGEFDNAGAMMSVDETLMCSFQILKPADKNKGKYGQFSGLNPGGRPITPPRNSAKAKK

B1: GST fusion protein of the cytoplasmic amino terminus of rat NCC (amino acids 1-133) (domain or fragment, UniProt P55018 1-133, looked up)
chain: MAELPVTEMPGDALCSGRFTISTLLGGDEPPPAACDNSQPSHLTHGSTLYLRTFGYNTIDVVPAYEHYANSALPGEPRKVRPTLADLHSFLKQEGSHLHALAFDGRPGHELTDGLVEDETGANSEKSPGEPVR
notes: thiazide-sensitive sodium chloride cotransporter NCC (SLC12A3), rat, NP_062218, cytoplasmic amino terminus, amino acids 1-133; cloned into pGEX4T1; also called GST-NCC-(N); GST-(N) NCC; source: E. coli C43 (DE3), recovered by glutathione chromatography, kept on beads
In the case of B1, the binding result is given as “binds”.
